Laboratory results published in PMC8307404, “Crystal Structure-Guided Design of Bisubstrate Inhibitors and Photoluminescent Probes for Protein Kinases of the PIM Family” (Molecules, 2021).
Square brackets hold non-standard residues; d marks the D form. Ends that are not written are not given here.

Experiments:
Test in all cases: fluorescence polarisation + other: time-gated luminescence intensity (TGLI); binding/displacement assay in solution with the probes ARC-1451, ARC-1188 or ARC-583; 20 min at 30 °C; 50 mM HEPES pH 7.4, 150 mM NaCl, 5 mM dithiothreitol, 0.5 mg/mL BSA, 0.005% Tween-20; N = 2
Conditions in all cases: both partners purified
[1] = target: catalytic subunit α of protein kinase A (human, UniProt P17612 1-351)
protein kinase PIM-3 = protein kinase PIM-3 (human, UniProt Q86V86 1-326)
protein kinase PIM-1 = protein kinase PIM-1 (human, UniProt P11309 1-313)
protein kinase PIM-2 = protein kinase PIM-2 (human, UniProt Q9P1W9 1-311)
protein kinase PIM-2, sequence (Q9P1W9 whole entry): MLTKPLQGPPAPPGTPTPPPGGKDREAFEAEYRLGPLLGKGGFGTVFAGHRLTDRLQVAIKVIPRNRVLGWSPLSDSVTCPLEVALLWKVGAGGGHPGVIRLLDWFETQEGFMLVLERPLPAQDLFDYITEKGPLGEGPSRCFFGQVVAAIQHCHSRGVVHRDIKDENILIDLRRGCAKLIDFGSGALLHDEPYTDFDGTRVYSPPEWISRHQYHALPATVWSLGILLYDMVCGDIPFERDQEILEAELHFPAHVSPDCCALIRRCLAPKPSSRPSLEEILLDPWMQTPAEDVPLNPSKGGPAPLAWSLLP

protein kinase PIM-1, sequence (P11309 whole entry): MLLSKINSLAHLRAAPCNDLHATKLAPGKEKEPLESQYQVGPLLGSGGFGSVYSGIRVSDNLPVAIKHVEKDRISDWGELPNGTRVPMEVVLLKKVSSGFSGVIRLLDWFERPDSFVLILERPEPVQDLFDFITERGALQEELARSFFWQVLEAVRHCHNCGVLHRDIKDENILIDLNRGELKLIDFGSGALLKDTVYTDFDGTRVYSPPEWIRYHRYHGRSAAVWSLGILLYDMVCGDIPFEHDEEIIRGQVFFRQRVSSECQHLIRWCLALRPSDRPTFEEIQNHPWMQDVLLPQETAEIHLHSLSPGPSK

B1: PIM peptide, (D-Arg)2-Gly-D-Arg-D-Lys-NH2 (peptide)
peptide: [dR][dR]G[dR][dK]-NH2
modifications: N-terminus assumed
SMILES: N=C(N)NCCC[C@@H](N)C(=O)N[C@H](CCCNC(=N)N)C(=O)NCC(=O)N[C@H](CCCNC(=N)N)C(=O)N[C@H](CCCCN)C(N)=O
notes: printed in three-letter code as (D-Arg)2-Gly-D-Arg-D-Lys-NH2; All chiral residues are D-amino acids; This is the peptide part of compounds 1-5, without the adenosine analogue moiety and the linker; also called designed peptide mimetic moiety of compounds 1-5; source: synthetic peptide (Fmoc solid-phase synthesis on Rink amide resin, HPLC purified)
Kd [1]: > 89 µM
Kd (protein kinase PIM-3): > 16.4 µM
Kd (protein kinase PIM-1): > 11.5 µM
Kd (protein kinase PIM-2): > 46 µM
